{"source": "paper PMC3184076", "about": "(2011)", "binders": {"B1": {"name": "CAP206-CH12 recombinant human monoclonal antibody (antibody, V domains shown)", "VH": "QVQLVQSGAEVKKPGSSVKLSCKASGGTFGSYSVTWVRQAPGQTFEWVGRIVPWVGVPNYAPKFQGRVTITADKSSTVYMELTSLRFEDTAVYYCATAYEASGLSYYYYMDDWGKGTTVTVSS", "VL": "EIVLTQSPGTLSLSPGERATLSCRASQSVTSSYLAWFRHKPGQAPRLLIYGASYRGTGIPDRISGSGSGTDFTLTISRLEPEDFAVYYCQHYGGSPGMYTFGQGTRLEIK"}}, "biological_target": "MPR.03 biotinylated peptide (HIV-1, biotin on the C-terminus)", "experiment": "SPR", "data": [{"binder": "B1", "values": [{"measurement": "koff", "result": 0.00012, "unit": "s⁻¹"}]}]}
